For the assay, the target named is prefusion S protein of SARS-CoV (SARS-CoV).

The substance COVA1-16 (antibody) yielded an IC50 of neutralisation of SARS-CoV pseudovirus of 2.5 µg/mL. As for COVA2-02 (antibody), the figure is 0.61 µg/mL.

Values taken from publication PMC7299281.
